Laboratory results: US20250312473A1 (BEONE MEDICINES I, published 2025)
Numbering of substitutions follows the chain as printed. Values belong to the binder of their own block, whether it stands above or below them.

Key:
[1] = molecular target: T1, ECD of human 4Ig-B7H3 (Sinobiological, Cat: 11188-H08H) (human); assay: SPR, antibody captured on anti-human Fc surface, Test 1
T1 construct: Bought protein; also called human 4Ig-B7H3 ECD
Text: (§1) For affinity determination, antibodies were captured by anti-human Fc surface, and used in an affinity assay based on surface plasmon resonance (SPR) technology.

[2] = molecular target: T1, ECD of human 4Ig-B7H3 (Sinobiological, …); assay: SPR, antibody captured on anti-human Fc surface, Test 2
Text: as §1

[3] = molecular target: T2, human 4Ig-B7H3 over-expressed on NK92mi cells (human, UniProt Q5ZPR3 29-534); assay: FACS on live NK92mi/B7H3 cells, goat anti-human IgG detection, Test1
T2 construct: Full-length protein on live engineered NK92mi cells; also called NK92mi/B7H3; native B7H3
T2 sequence: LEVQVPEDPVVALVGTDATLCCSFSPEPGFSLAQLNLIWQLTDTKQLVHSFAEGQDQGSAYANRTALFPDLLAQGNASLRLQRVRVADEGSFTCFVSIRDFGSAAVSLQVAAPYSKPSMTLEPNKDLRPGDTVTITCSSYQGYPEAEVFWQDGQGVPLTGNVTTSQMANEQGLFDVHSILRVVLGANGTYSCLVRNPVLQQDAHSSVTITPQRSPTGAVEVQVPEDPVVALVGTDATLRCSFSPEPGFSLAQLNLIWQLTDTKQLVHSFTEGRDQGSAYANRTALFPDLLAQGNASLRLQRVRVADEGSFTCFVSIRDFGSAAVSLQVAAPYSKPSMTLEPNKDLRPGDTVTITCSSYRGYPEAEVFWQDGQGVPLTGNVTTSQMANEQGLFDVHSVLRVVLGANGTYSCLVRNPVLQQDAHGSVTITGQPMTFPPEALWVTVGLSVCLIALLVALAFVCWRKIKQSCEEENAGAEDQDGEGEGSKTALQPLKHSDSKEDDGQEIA
Procedure: (§2) To evaluate the binding activity of humanized antibodies to bind native B7H3 on live cells, NK92mi cells were engineered to over-express human 4Ig-B7H3. Live NK92mi/B7H3 cells were seeded in 96-well plates and were incubated with a series of dilutions of chimeric or humanized antibodies. Goat anti-human IgG was used as second antibody to detect antibody binding to the cell surface. EC₅₀ values for dose-dependent binding to human native B7H3 were determined by fitting the dose-response data to the four-parameter logistic model with GraphPad Prism.

[4] = molecular target: T2, human 4Ig-B7H3 over-expressed on NK92mi …; assay: FACS on live NK92mi/B7H3 cells, goat anti-human IgG detection, Test2
Procedure: as §2

Kd [1]: 0.33 nM
koff [1]: 1.04e-05 s⁻¹
kon [1]: 31500 M⁻¹ s⁻¹
Kd [2]: 0.615 nM
koff [2]: 0.000227 s⁻¹
kon [2]: 369000 M⁻¹ s⁻¹
EC50 [3]: 0.94 nM
EC50 [4]: 0.94 nM
B1: BGA-4348 (antibody, human IgG1, V domains shown)
VH: QIQLVQSGAEVKKPGSSVKVSCKASGYTFTNYDINWVRQAPGQGLEWMGWIYPGDGSAYYNEKFKGRATITADKSTSTAYMELSSLRSEDTAVYYCARWGYGGVPFAYWGQGTLVTVSS
VL: DIVMTQSPDSLAVSLGERATINCKSSQSLLNDINQKNYLAWYQQKPGQSPKLLVYFASTGVSGVPDRFSGSGSGTDFTLTISSLQAEDVAVYYCQQYYSFPWTFGGGTKVEIK
notes: also called humanized antibody BGA-4348; 1st version of humanized antibody; not shown: Human kappa light chain constant region

Kd [2]: 0.916 nM
koff [2]: 0.000269 s⁻¹
kon [2]: 294000 M⁻¹ s⁻¹
EC50 [4]: 1.15 nM
B2: BGA-5063 (antibody, human IgG1, V domains shown)
VH: B1 VH with I2V, G56A
VL: B1 VL
notes: Derived from BGA-4348 by framework and CDR mutations; also called humanized antibody BGA-5063; not shown: Human kappa light chain constant region

Kd [1]: 0.394 nM
koff [1]: 0.000284 s⁻¹
kon [1]: 720000 M⁻¹ s⁻¹
EC50 [3]: 1.1 nM
B3: Chimeric BGA-3295 (antibody, V domains shown)
VH: QIQVVQSGPELVKPGSLVKISCKASGYTFTNYDINWVKQRPGQGLEWIGWIYPGDGSAYYNEKFKGKATLTADKSSSTAYMQLSSLTSENSAVYFCARWGYGGVPFAYWGQGTLVTVSA
VL: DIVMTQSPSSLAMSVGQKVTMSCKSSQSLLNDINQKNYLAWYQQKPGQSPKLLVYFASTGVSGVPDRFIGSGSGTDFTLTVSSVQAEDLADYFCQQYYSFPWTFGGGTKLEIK
notes: Murine variable domains of BGA-3295, tested as the chimeric antibody; It was captured on an anti-human Fc surface and detected with anti-human IgG; also called Antibody BGA-3295
